Assays:
[1] = target: T1, CD20 (B-lymphocyte antigen), expressed on HEK293T cells (human) (UniProt P11836); assay: flow cytometry (cell binding); details: no shift on untransfected HEK293T, DPBS with 4.5 g/L glucose, 5 mM MgCl2, 0.1 mg/mL yeast tRNA, 1 g/L BSA (10% FBS in flow assay), on ice 30 min, aptamer heated 95 C 5 min and snap-cooled, pH …
T1 sequence: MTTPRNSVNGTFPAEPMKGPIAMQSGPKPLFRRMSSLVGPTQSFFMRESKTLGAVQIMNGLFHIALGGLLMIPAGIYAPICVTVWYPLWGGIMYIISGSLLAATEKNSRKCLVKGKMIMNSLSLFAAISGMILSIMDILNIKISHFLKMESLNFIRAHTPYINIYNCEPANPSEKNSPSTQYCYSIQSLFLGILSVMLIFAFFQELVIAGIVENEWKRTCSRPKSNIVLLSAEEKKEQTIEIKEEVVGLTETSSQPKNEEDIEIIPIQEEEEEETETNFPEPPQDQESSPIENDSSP

[2] = target: T2, CD20 on Pre-B ALL bone marrow cells (human) (UniProt P11836); assay: flow cytometry (cell binding); details: T-ALL (CD20-low) control 1.5%, DPBS with 4.5 g/L glucose, 5 mM MgCl2, 0.1 mg/mL yeast tRNA, 1 g/L BSA (10% FBS in flow assay), on ice 30 min, aptamer heated 95 C 5 min and snap-cooled, pH …
T2 sequence: T1 sequence

Sequence: ATACCAGCTTATTCAATTGGAATAAGGGGGTATTACTGTCTGGTAAACAAACGCTATGCGAGGGGATTCAAGATAGTAAGTGCAATCT [AP-1]
- Kd [1]: 96.9 nM
- binding signal (% positive cells) [2]: 71.4
